Assay results reported in publication PMC6238601, “Specificity for deubiquitination of monoubiquitinated FANCD2 is driven by the N-terminus of USP1” (Life Science Alliance, 2018).

Assays:
Conditions in all cases: both partners purified
[1] = molecular target: T1, UAF1 (USP1-associated factor 1) (human, UniProt Q8TAF3 1-677); test: SEC; USP1 and UAF1 alone or together at 15 μM, 15 min on ice; SD200 Increase (10/300); 20 mM Tris pH 8.0, 150 mM NaCl, 5% glycerol, 5 mM DTT; fractions on SDS-PAGE, Coomassie
T1 construct: UAF1 (USP1-associated factor 1), human; N-terminal His-3C tag; the methods say tags were removed except from FANCD2, FANCI, USP2 and GST-ubiquitin; source: Sf21 (baculovirus), purified (Ni-NTA, anion exchange, SEC); not shown: His, N-terminal, cleaved

[2] = molecular target: T2, human PCNA-K164Ub (hsPCNA-Ub) (human | , UniProt P12004 1-261; P0CG48 1-76, K164 monoubiquitinated (isopeptide bond to ubiquitin) | C-terminus linked to K164 of PCNA); test: pull-down; N-terminal Strep-tagged UAF1 complexed with E. coli USP1, 10 μg bound to MagStrep beads and washed; 10 μg recombinant substrate, 1 h on ice; 50 mM Tris pH 7.5, 120 mM NaCl, 5% glycerol, 1 mM DTT, 0.01% Triton X-100, 0.01% ovalbumin; SDS-PAGE; beads without USP1–UAF1 as control
T2 construct: PCNA, human; ubiquitin; Covalent conjugate; also called monoubiquitinated PCNA

[3] = molecular target: T3, UAF1 with an N-terminal Strep tag (human, UniProt Q8TAF3 1-677); test: as above
T3 construct: UAF1 (USP1-associated factor 1), human; Strep11 tag and linker GGSGGS were added N-terminal of the His-3C tag; as the Strep tag is used for capture, the His-3C stretch was probably kept too (surmise); also called Strep-tagged UAF1; N-terminal Strep-tagged UAF1; source: Sf21 (baculovirus), purified; not shown: Strep11, N-terminal, kept

[4] = molecular target: T4, human FANCD2 (hsFANCD2), non-ubiquitinated (human, UniProt Q9BXW9 1-1451); test: as above
T4 construct: FANCD2 (Fanconi anemia group D2 protein), human, full length; gene synthesised and optimised for Spodoptera frugiperda; His-3C tag; tags were not removed from FANCD2; also called Fanconi anemia group D2 protein; source: Sf21 (baculovirus), purified (Ni-NTA, anion exchange, SEC)

B1: USP1^ΔNΔ1Δ2 (Δ1–54, Δ229–408, Δ608–737), Sf21-expressed (domain or fragment, human, UniProt O94782 55-785, looked up)
chain: SEIDQVVPAAQSSPINCEKRENLLPFVGLNNLGNTCYLNSILQVLYFCPGFKSGVKHLFNIISRKKEALKDEANQKDKGNCKEDSLASYELICSLQSLIISVEQLQASFLLNPEKYTDELATQPRRLLNTLRELNPMYEGYLQHDAQEVLQCILGNIQETCQLLKKEEVKNVAENEVKPINKGEEQIGFELVEKLFQGQLVLRTRCLECESLTERREDFQDISVPVQEDELSKVEESSEISPEPKTEMKTLRWAISQFASVERIVGEDKYFCENCHHYTEAERSLLFDKMPEVITIHLKCFAASGLEFDCYGGGLSKINTPLLTPLKLSLEEWSTKPTNDSYGLFAVVMHSGITISSGHYTASVKVTDLNSLEQSLKEYEGKWLLFDDSEVKVTEEKDFLNSLSPSTSPTSTPYLLFYKKL
notes: USP1, human; N-terminus (Δ1–54), Insertion 1 (Δ229–408) and Insertion 2 (Δ608–737) deleted in the full-length background; the G670A/G671A site lies in the deleted Insertion 2; also called minimal USP1 catalytic domain; catalytic domain of USP1; source: Sf21 (baculovirus), purified (Ni-NTA, anion exchange, SEC)
binding result [1]: binds

B2: USP1^ΔNΔ1Δ2–UAF1 complex (Strep-tagged UAF1) (complex)
chain 1: SEIDQVVPAAQSSPINCEKRENLLPFVGLNNLGNTCYLNSILQVLYFCPGFKSGVKHLFNIISRKKEALKDEANQKDKGNCKEDSLASYELICSLQSLIISVEQLQASFLLNPEKYTDELATQPRRLLNTLRELNPMYEGYLQHDAQEVLQCILGNIQETCQLLKKEEVKNVAENEVKPINKGEEQIGFELVEKLFQGQLVLRTRCLECESLTERREDFQDISVPVQEDELSKVEESSEISPEPKTEMKTLRWAISQFASVERIVGEDKYFCENCHHYTEAERSLLFDKMPEVITIHLKCFAASGLEFDCYGGGLSKINTPLLTPLKLSLEEWSTKPTNDSYGLFAVVMHSGITISSGHYTASVKVTDLNSLEQSLKEYEGKWLLFDDSEVKVTEEKDFLNSLSPSTSPTSTPYLLFYKKL
chain 2: not shown
notes: USP1, human; Δ1–54, Δ229–408, Δ608–737; as m9; UAF1, human; as m7; Bait complex formed beforehand and held on MagStrep beads; source: E. coli USP1^ΔNΔ1Δ2 complexed with Sf21 Strep-UAF1, both purified; not shown: Strep11, N-terminal, kept
binding result [2]: binds

B3: USP1^ΔNΔ1Δ2 (Δ1–54, Δ229–408, Δ608–737), E. coli-expressed (domain or fragment, human, UniProt O94782 55-785, looked up)
chain: SEIDQVVPAAQSSPINCEKRENLLPFVGLNNLGNTCYLNSILQVLYFCPGFKSGVKHLFNIISRKKEALKDEANQKDKGNCKEDSLASYELICSLQSLIISVEQLQASFLLNPEKYTDELATQPRRLLNTLRELNPMYEGYLQHDAQEVLQCILGNIQETCQLLKKEEVKNVAENEVKPINKGEEQIGFELVEKLFQGQLVLRTRCLECESLTERREDFQDISVPVQEDELSKVEESSEISPEPKTEMKTLRWAISQFASVERIVGEDKYFCENCHHYTEAERSLLFDKMPEVITIHLKCFAASGLEFDCYGGGLSKINTPLLTPLKLSLEEWSTKPTNDSYGLFAVVMHSGITISSGHYTASVKVTDLNSLEQSLKEYEGKWLLFDDSEVKVTEEKDFLNSLSPSTSPTSTPYLLFYKKL
notes: USP1, human; Δ1–54, Δ229–408, Δ608–737; also called E. coli–expressed USP1^ΔNΔ1Δ2; source: E. coli BL21, purified (GSH resin, SEC)
binding result [3]: binds

B4: USP1^Δ1Δ2-R22K–UAF1 complex (Strep-tagged UAF1) (complex)
chain 1: MPGVIPSESNGLSRGSPSKKNKLSLKFFQKKETKRALDFTDSQENEEKASEYRASEIDQVVPAAQSSPINCEKRENLLPFVGLNNLGNTCYLNSILQVLYFCPGFKSGVKHLFNIISRKKEALKDEANQKDKGNCKEDSLASYELICSLQSLIISVEQLQASFLLNPEKYTDELATQPRRLLNTLRELNPMYEGYLQHDAQEVLQCILGNIQETCQLLKKEEVKNVAENEVKPINKGEEQIGFELVEKLFQGQLVLRTRCLECESLTERREDFQDISVPVQEDELSKVEESSEISPEPKTEMKTLRWAISQFASVERIVGEDKYFCENCHHYTEAERSLLFDKMPEVITIHLKCFAASGLEFDCYGGGLSKINTPLLTPLKLSLEEWSTKPTNDSYGLFAVVMHSGITISSGHYTASVKVTDLNSLEQSLKEYEGKWLLFDDSEVKVTEEKDFLNSLSPSTSPTSTPYLLFYKKL
chain 2: not shown
notes: USP1, human; Δ229–408, Δ608–737, R22K; as m11; UAF1, human; as m7; source: E. coli USP1^Δ1Δ2-R22K complexed with Sf21 Strep-UAF1, both purified; not shown: Strep11, N-terminal, kept
binding result [4]: binds

B5: USP1^Δ1Δ2 (Δ229–408, Δ608–737), E. coli-expressed (enzyme, human, UniProt O94782 1-785, looked up)
chain: MPGVIPSESNGLSRGSPSKKNRLSLKFFQKKETKRALDFTDSQENEEKASEYRASEIDQVVPAAQSSPINCEKRENLLPFVGLNNLGNTCYLNSILQVLYFCPGFKSGVKHLFNIISRKKEALKDEANQKDKGNCKEDSLASYELICSLQSLIISVEQLQASFLLNPEKYTDELATQPRRLLNTLRELNPMYEGYLQHDAQEVLQCILGNIQETCQLLKKEEVKNVAENEVKPINKGEEQIGFELVEKLFQGQLVLRTRCLECESLTERREDFQDISVPVQEDELSKVEESSEISPEPKTEMKTLRWAISQFASVERIVGEDKYFCENCHHYTEAERSLLFDKMPEVITIHLKCFAASGLEFDCYGGGLSKINTPLLTPLKLSLEEWSTKPTNDSYGLFAVVMHSGITISSGHYTASVKVTDLNSLEQSLKEYEGKWLLFDDSEVKVTEEKDFLNSLSPSTSPTSTPYLLFYKKL
notes: USP1, human; Insertion 1 (Δ229–408) and Insertion 2 (Δ608–737) deleted; gene synthesised and optimised for E. coli; GST-3C tag from pGEX6P; a few residues of the 3C site may be left after cleavage (surmise); also called E. coli–expressed USP1^Δ1Δ2; source: E. coli BL21, purified (GSH resin, SEC)
binding result [3]: binds
